Measured values from patent US20030109000A1.

Molecular target: cell-surface PDGF receptors (on rat stellate cells) (rat)
Experiment: cell-based or functional assay

Substance: PDGF-D GFD dimer (from UniProt Q5RA73 250-370) (ligand)
- luciferase reporter (SRE/STAT) RLU in rat stellate cell lysate at 0.3 ng/ml: 160 RLU
- luciferase reporter (SRE/STAT) RLU in rat stellate cell lysate at 1 ng/ml: 278 RLU
- luciferase reporter (SRE/STAT) RLU in rat stellate cell lysate at 3 ng/ml: 400 RLU
- luciferase reporter (SRE/STAT) RLU in rat stellate cell lysate at 10 ng/ml: 542 RLU
- luciferase reporter (SRE/STAT) RLU in rat stellate cell lysate at 30 ng/ml: 672 RLU
- luciferase reporter (SRE/STAT) RLU in rat stellate cell lysate at 100 ng/ml: 826 RLU
- luciferase reporter (SRE/STAT) RLU in rat stellate cell lysate at 300 ng/ml: 883 RLU
